Test results: patent publication US20110229465A1, “COMPOSITION FOR TREATING DISEASE” (priority 2008, published 2011)

Tests used:
[1] = test system: Treg cells; settings: in vitro 50 nM MTX (highest concentration analyzed); reduced from 94%, p<0.05; cited from earlier work
[2] = plasma levels of BT061 after intravenous administration in healthy volunteers; type: in vivo, human; settings: range in three volunteers
Description: This is considered to reflect a faster target mediated clearance.

[3] = test system: rheumatoid arthritis patients; assay: monotherapy trial of BT061 in rheumatoid arthritis patients, ACR improvements; type: in vivo, human; settings: week 7, blinded data from 8 individuals (2 placebo, six BT061)
Description: This system defines a value of ACR 20 as an at least 20% improvement in tender and swollen joint counts and at least 20% improvement in 3 of the 5 remaining ACR core set measures: patient and physician global assessments, pain, disability, and an acute phase reactant, such as C-reactive protein (CRP) or Erythrocyte Sedimentation Rate (ESR). Similarly, ACR 50 and ACR 70 scores define an at least 50% and an at least 70% improvement, respectively.
As indicated above, in one aspect of the invention the agent and/or methotrexate are administered subcutaneously. In general, as is known in the art, subcutaneous doses need to be larger than intravenous doses in order to achieve the equivalent therapeutic effect.

[4] = test system: CD4+CD25+ regulatory T cells; assay: in vitro proliferation assay with freshly isolated CD4+CD25+ regulatory T cells; type: cell-based, human
Protocol: 50 ml EDTA blood specimens were obtained from healthy control donors. Peripheral blood mononuclear cells (PBMCs), regulatory T cells (Tregs) and T helper cells as T responder cells (Tresps) were isolated from peripheral blood samples as previously described (Haas et al., 2007).
Freshly isolated Tregs were pre-incubated for 48 hours with 1 μg/ml plate bound antibody (BT061), 1 μg/ml soluble BT061 or Medium.
Freshly isolated Tregs (2.5×10^4, donor A) obtained from 2 donors (Exp. 1 and Exp. 2) were pre-incubated for 48 hours with either 1 μg/ml soluble or plate bound BT061. To achieve allogeneic stimulation the 2.5×10^4 pre-incubated Tregs were then transferred to 1×10^5 T cells as responder cells (Tresps) from a second donor (donor B) in the presence of 2×10^5 T cell depleted and irradiated (30 Gray) PBMCs (donor A). After 4 days of stimulation 1 μCi [3H] thymidine per well was added and proliferation was measured after additional 16 hours.
The percentage of Treg mediated inhibition of Tresp proliferation is shown in FIG. 1 as the percent suppression of proliferation of Tresps incubated with PBMC in the absence of Tregs. Results are shown for the Tregs obtained from the two donors (Exp. 1 and Exp. 2). […]

[5] = 2 mg i.v. once weekly for six weeks
[6] = 50 mg s.c. once weekly for six weeks

Molecule: CN(Cc1cnc2nc(N)nc(N)c2n1)c1ccc(C(=O)N[C@@H](CCC(=O)O)C(=O)O)cc1 [MTX, 4-amino-N10-methylpteroyl glutamic acid]
- suppressive activity of Treg cells [1]: 88%

B1: BT061: humanized anti-CD4 antibody derived from mouse B-F5, V domains SEQ ID NO: 1 and 2, activates CD4+CD25+ regulatory T cells (antibody, V domains shown)
VH: EEQLVESGGGLVKPGGSLRLSCAASGFSFSDCRMYWLRQAPGKGLEWIGVISVKSENYGANYAESVRGRFTISRDDSKNTVYLQMNSLKTEDTAVYYCSASYYRYDVGAWFAYWGQGTLVTVSS
VL: DIVMTQSPDSLAVSLGERATINCRASKSVSTSGYSYIYWYQQKPGQPPKLLIYLASILESGVPDRFSGSGSGTDFTLTISSLQAEDVAVYYCQHSRELPWTFGQGTKVEIK
modifications: V domain of H chain of humanized antibody hB-F5H37L; V domain of K chain of humanized antibody hB-F5L4M
- plasma level, conc. 3 h post end of infusion ([2]; dosage 2.5 mg intravenous): 0 ng/mL
- plasma level, effective cmax (post end of infusion) ([2]; dosage 2.5 mg intravenous): 60 to 140 ng/mL
- plasma level, conc. 3 h post end of infusion ([2]; dosage 5 mg intravenous): 90 to 160 ng/mL
- plasma level, effective cmax (post end of infusion) ([2]; dosage 5 mg intravenous): 320 to 440 ng/mL
- plasma level, conc. 3 h post end of infusion ([2]; dosage 10 mg intravenous): 460 to 1400 ng/mL
- plasma level, effective cmax (post end of infusion) ([2]; dosage 10 mg intravenous): 800 to 2000 ng/mL
- plasma level, conc. 3 h post end of infusion ([2]; dosage 20 mg intravenous): 1700 to 3300 ng/mL
- plasma level, effective cmax (post end of infusion) ([2]; dosage 20 mg intravenous): 2300 to 4100 ng/mL
- plasma level, conc. 3 h post end of infusion ([2]; dosage 40 mg intravenous): 4400 to 6100 ng/mL
- plasma level, effective cmax (post end of infusion) ([2]; dosage 40 mg intravenous): 5900 to 6500 ng/mL
- plasma level, conc. 3 h post end of infusion ([2]; dosage 60 mg intravenous): 7700 to 11080 ng/mL
- plasma level, effective cmax (post end of infusion) ([2]; dosage 60 mg intravenous): 8900 to 15100 ng/mL
- percentage of patients showing ACR20 [3, 5]: 50%
- percentage of patients showing ACR50 [3, 5]: 25%
- percentage of patients showing ACR70 [3, 5]: 12.5%
- percentage of patients showing ACR20 [3, 6]: 50%
- percentage of patients showing ACR50 [3, 6]: 25%
- percentage of patients showing ACR70 [3, 6]: 12.5%
- Treg mediated suppression of Tresp proliferation ([4]; Tregs pre-incubated 48 hours with 1 μg/ml plate bound BT061, versus medium alone): able to reduce average proliferative responses of allogeneic stimulated Tresps
- Treg mediated suppression of Tresp proliferation ([4]; Tregs pre-incubated 48 hours with 1 μg/ml soluble BT061, versus medium alone): able to reduce average proliferative responses of allogeneic stimulated Tresps
